This passage reports EC50 results from US20250051429A1 (Hoffmann-La Roche, published 2025).

This experiment addresses T1, human A-beta protein, fibrillar A-beta(1-40) coated for the ELISA (human).
T1 construct: also called Aβ1-40 fibers; fibrillar Aβ
The experiment can be described thus: ELISA, antibody on coated fibrillar A-beta(1-40). As to the method:
Binding of the antibodies to fibrillar Aβ is measured by an ELISA assay. Briefly, AD(1-40) is coated at 7 μg/mL in PBS onto Maxisorb plates for 3 days at 37° C. to produce fibrillar Abeta, and then dried for 3 h at RT. The plate is blocked with 1% CroteinC and 0.1% RSA in PBS (blocking buffer) for 1 h at RT, then washed once with wash buffer. Antibodies or controls are added at concentrations up to 100 nM in blocking buffer and incubated at 4° C. overnight. After 4 wash steps, constructs are detected by addition of anti-human-IgG-HRP (Jackson Immunoresearch) at 1:10,000 dilution in blocking buffer […], followed by 6 washes and incubation in TMB (Sigma). Absorbance is read out at 450 nm after stopping color development with 1 N HCl.
For orientation: An ELISA detects its analyte on a solid surface through an enzyme-linked reagent.

T1 sequence (peptide, as listed by the source): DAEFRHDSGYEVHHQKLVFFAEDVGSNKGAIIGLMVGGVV

B1: gantenerumab (antibody, human IgG1, V domains shown)
VH: QVELVESGGGLVQPGGSLRLSCAASGFTFSSYAMSWVRQAPGKGLEWVSAINASGTRTYYADSVKGRFTISRDNSKNTLYLQMNSLRAEDTAVYYCARGKGNTHKPYGYVRYFDVWGQGTLVTVSS
VL: DIVLTQSPATLSLSPGERATLSCRASQSVSSSYLAWYQQKPGQAPRLLIYGASSRATGVPARFSGSGSGTDFTLTISSLEPEDFATYYCLQIYNMPITFGQGTKVEIK
modifications: glycosylation site in heavy chain CDR2 (NAS); Fab glycosylation (CE-SDS) 30-80 %
notes: kappa light chain; also called parent antibody gantenerumab; wt: NAS
In the case of B1, the EC50 (in general, the midpoint of the concentration-response curve) was 0.2 nM. This counts as sub-nanomolar.

B2: mAb 675 (antibody, V domains shown)
VH: QVELVESGGGLVQPGGSLRLSCAASGFTFSSYAMSWVRQAPGKGLEWVSAINATGTRTYYADSVKGRFTISRDNSKNTLYLQMNSLRAEDTAVYYCARGKGSSGYVRYFDVWGQGTLVTVSS
VL: DIVLTQSPATLSLSPGERATLSCRASQSVSSSYLAWYQQKPGQAPRLLIYGASSRATGVPARFSGSGSGTDFTLTISSLEPEDFATYYCLQIYNMPITFGQGTKVEIK
modifications: glycosylation site in heavy chain CDR2 (NAT); Fab glycosylation (CE-SDS) 100 %
notes: Variant of gantenerumab: heavy chain S53T (Kabat) and shortened heavy chain CDR3, wild-type light chain; Only variable domains are tied to the name; also called 142; gantenerumab VH NAT variant with wild-type light chain
With B2, the EC50 came out at 0.2 nM.

B3: mAb 663 (antibody, V domains shown)
VH: QVELVESGGGLVQPGGSLRLSCAASGFTFSSYAMSWVRQAPGKGLEWVSAIQASGTRTYYADSVKGRFTISRDNSKNTLYLQMNSLRAEDTAVYYCARGKGSSGYVRYFDVWGQGTLVTVSS
VL: DIVLTQSPATLSLSPGERATLSCRASQSVSSSYLAWYQQKPGQAPRLLIYGASSRATGVPARFSGSGSGTDFTLTISSLEPEDFATYYCLQIYNMPITFGQGTKVEIK
modifications: no Fab glycosylation (CE-SDS 0 %)
notes: Variant of gantenerumab: heavy chain N52Q (Kabat) and shortened heavy chain CDR3, wild-type light chain; also called 143; gantenerumab VH QAS variant with wild-type light chain
B3 gave an EC50 of 0.2 nM. That is a sub-nanomolar value.

B4: mAb 638 (antibody, V domains shown)
VH: QVELVESGGGLVQPGGSLRLSCAASGFTFSSYAMSWVRQAPGKGLEWVSAIQASGTRTYYADSVKGRFTISRDNSKNTLYLQMNSLRAEDTAVYYCARGKGSSGYVRYFDVWGQGTLVTVSS
VL: DIVLTQSPATLSLSPGERATLSCRASQSVSSSYLAWYQQKPGQAPRLLIYGASSRATGVPARFSGSGSGTDFTLTISSLEPEDFATYYCLQIYNHPITFGQGTKVEIK
modifications: no Fab glycosylation (CE-SDS 0 %)
notes: Variant of gantenerumab: heavy chain N52Q, shortened heavy chain CDR3, light chain M95H (Kabat)
Take B4: it took 0.2 nM to reach a half-maximal effect (EC50).

B5: mAb 651 (antibody, V domains shown)
VH: QVELVESGGGLVQPGGSLRLSCAASGFTFSSYAMSWVRQAPGKGLEWVSAINATGTRTYYADSVKGRFTISRDNSKNTLYLQMNSLRAEDTAVYYCARGKGSSGYVRYFDVWGQGTLVTVSS
VL: DIVLTQSPATLSLSPGERATLSCRASQSVSSSYLAWYQQKPGQAPRLLIYGASSRATGVPARFSGSGSGTDFTLTISSLEPEDFATYYCLQIYNHPITFGQGTKVEIK
modifications: glycosylation site in heavy chain CDR2 (NAT); Fab glycosylation (CE-SDS) 100 %
notes: Variant of gantenerumab: heavy chain S53T, shortened heavy chain CDR3, light chain M95H (Kabat); also called 144
For B5, a half-maximal response (EC50) required 4 nM.
